Experimental findings from the supplement of paper PMC9732359 are described below.

The nature of this data set: protein stability index of a GFP-peptide fusion (yeast GPS) (PSI 1-4); higher = more stable; sorted into four equal gates, so the index is relative within each strain. In short, it runs like this:
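Yeast carrying a pooled library were grown to mid-log phase in leucine-free medium. Each library plasmid expresses Cherry and has a tiled 17-residue yeast protein peptide fused downstream of GFP. Cells were sorted into four equal gates by GFP/Cherry ratio, and plasmids from each gate were PCR-amplified, Illumina-sequenced and assigned to strains by barcode. Summing, across gates, the read frequency times the gate number gave each peptide's protein stability index.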

± gives the uncertainty stated by the source.

For IWLRKTSQMDLARDTPS [RRP4], the protein stability index reads like this: (doa10∆) 1.61 ± 0.041; (pdr5∆) 1.98 ± 0.051; (san1∆) 1.54 ± 0.097; (ubr1∆) 1.5 ± 0.044.

In turn, IWMRGHGTYFLDNMTYS [RRP4] registered a protein stability index (doa10∆) of 2.45 ± 0.06, a protein stability index (pdr5∆) of 2.38 ± 0.051, a protein stability index (san1∆) of 2.31 ± 0.082 and a protein stability index (ubr1∆) of 2.19 ± 0.054.

IYDFPGTPEATKGMITN [NUT2]: the protein stability index was found to be 2.54 ± 0.11 (doa10∆), 2.54 ± 0.11 (pdr5∆), 2.98 ± 0.15 (san1∆) and 3.3 ± 0.086 (ubr1∆).

In the case of IYSSDAQGDPNLEPLIA [NUT1], the protein stability index is, setting by setting: (doa10∆) 3.36 ± 0.14; (pdr5∆) 3.12 ± 0.096; (san1∆) 3.04 ± 0.065; (ubr1∆) 3.35 ± 0.1.

Turning to IYVHVRRSTPFSKIAEY [ESC2], the protein stability index (doa10∆) turned out to be 2.16 ± 0.053, the protein stability index (pdr5∆) came out at 2.33 ± 0.049, the protein stability index (san1∆) came to 2.52 ± 0.05 and the protein stability index (ubr1∆) was found to be 2.52 ± 0.047.

KAAISFGAKPEEQKSSD [YJL041W/NSP1]: the protein stability index runs as follows: (doa10∆) 3.12 ± 0.13; (pdr5∆) 2.94 ± 0.2; (san1∆) 3.5 ± 0.17; (ubr1∆) 3.1 ± 0.12.

As to KAEVTQLSNGIVVATEH [COR1], the protein stability index by setting is: (doa10∆) 2.58 ± 0.17; (pdr5∆) 3.15 ± 0.11; (san1∆) 3.18 ± 0.18; (ubr1∆) 2.96 ± 0.11.

For KAFEERHQAGKNQWFFS [RPL27A], the protein stability index runs as follows: (doa10∆) 2.87 ± 0.097; (pdr5∆) 3.14 ± 0.11; (san1∆) 2.65 ± 0.11; (ubr1∆) 3.03 ± 0.055.

With KAFKNNSSKYYINEKES [SMC4], the protein stability index reads like this: (doa10∆) 2.54 ± 0.12; (pdr5∆) 2.42 ± 0.07; (san1∆) 2.27 ± 0.083; (ubr1∆) 1.72 ± 0.064.

Turning to KAGKVAVVVRGRYAGKK [RPL27A], the protein stability index turned out to be 2.19 ± 0.083 (doa10∆), 2.17 ± 0.053 (pdr5∆), 2.19 ± 0.097 (san1∆) and 1.78 ± 0.086 (ubr1∆).

Regarding KAIFPNTVDGDLLKLVH [FAS1], the protein stability index by setting is: (doa10∆) 2.19 ± 0.17; (pdr5∆) 3.06 ± 0.14; (san1∆) 2.22 ± 0.14; (ubr1∆) 1.92 ± 0.05.

As to KAIRGMVSHKTARGKAA [RPL16B], the protein stability index is 1.94 ± 0.056 (doa10∆), 2.01 ± 0.057 (pdr5∆), 2.14 ± 0.087 (san1∆) and 2.62 ± 0.039 (ubr1∆).

Turning to KAKERLQALKANDEEAY [SNF2], the protein stability index is, setting by setting: (doa10∆) 1.81 ± 0.14; (pdr5∆) 2.51 ± 0.15; (san1∆) 2.55 ± 0.067; (ubr1∆) 1.77 ± 0.045.

Turning to KAKNPLTHSTPKNFGIG [RPL8B], the protein stability index reads like this: (doa10∆) 3.31 ± 0.13; (pdr5∆) 3.35 ± 0.12; (san1∆) 3.14 ± 0.074; (ubr1∆) 3.08 ± 0.05.

For the sequence KAKSHFTNIISRNKALE [YJL039C/NUP192], the protein stability index runs as follows: (doa10∆) 2.66 ± 0.079; (pdr5∆) 2.01 ± 0.053; (san1∆) 2.39 ± 0.13; (ubr1∆) 2.68 ± 0.075.

As for KALAIFVPVPSLAGFHK [RPS7A], the protein stability index was determined as 2.29 ± 0.051 (doa10∆), 1.93 ± 0.04 (pdr5∆), 1.77 ± 0.069 (san1∆) and 1.85 ± 0.039 (ubr1∆).

For the sequence KAPNAVVITFEKEDHTL [RPB11], the protein stability index reads like this: (doa10∆) 1.26 ± 0.077; (pdr5∆) 2.7 ± 0.12; (san1∆) 2.19 ± 0.091; (ubr1∆) 1.97 ± 0.076.

Turning to KASTYGELVLDIEVPDV [SNF12], the protein stability index is 2.61 ± 0.058 (doa10∆), 2.28 ± 0.051 (pdr5∆), 2.13 ± 0.075 (san1∆) and 1.87 ± 0.045 (ubr1∆).

With KCKTRAQLTLKRCKHFE [RPL42A], the protein stability index runs as follows: (doa10∆) 2.65 ± 0.088; (pdr5∆) 2.58 ± 0.085; (san1∆) 2.85 ± 0.064; (ubr1∆) 2.68 ± 0.061.

On to KCVVIHNGSHRTVAGFS [ARP7], for which the protein stability index (doa10∆) was found to be 2.67 ± 0.051, the protein stability index (pdr5∆) was 2.74 ± 0.048, the protein stability index (san1∆) was 2.54 ± 0.051 and the protein stability index (ubr1∆) was determined as 2.67 ± 0.035.

Consider KDAVDYSKIPNILSNKP [RRP6], for which the protein stability index stood at 1.51 ± 0.096 (doa10∆), 1.97 ± 0.093 (pdr5∆), 1.58 ± 0.21 (san1∆) and 1.58 ± 0.049 (ubr1∆).

Where the note is “pdr5∆”, KDEIVLSGNSVEDVSQN [RPL9A] had a protein stability index of 3.52 ± 0.26.

As to KDFTNKNLIQLISLKLL [SRB8], the protein stability index is, setting by setting: (doa10∆) 1.28 ± 0.042; (pdr5∆) 1.49 ± 0.035; (san1∆) 1.66 ± 0.067; (ubr1∆) 1.91 ± 0.032.

For the sequence KDGRIRIFKITEKLSPL [YGL100W/SEH1], the protein stability index is, setting by setting: (doa10∆) 2.84 ± 0.079; (pdr5∆) 2.85 ± 0.09; (san1∆) 2.57 ± 0.08; (ubr1∆) 2.79 ± 0.045.

On to KDKLREFIPHSTEYMMQ [RPN6], for which the protein stability index worked out at 3.46 ± 0.11 (doa10∆), 3.22 ± 0.11 (pdr5∆), 2.83 ± 0.075 (san1∆) and 2.63 ± 0.087 (ubr1∆).

With KDLETLYNKIWTEASSS [ECM29], the protein stability index (doa10∆) worked out at 3.24 ± 0.2, the protein stability index (pdr5∆) turned out to be 2.84 ± 0.14, the protein stability index (san1∆) was 2.71 ± 0.091 and the protein stability index (ubr1∆) was found to be 2.51 ± 0.083.
